For 1 substance, Red Pullulan hydrolysis (ZPU1 activity) in total soluble extracts of yeast strain 830 (ISA1 and ZPU1) compared with strain 808 (ZPU1 alone) results are on record in paper PMC12516185.

The experiment has as its target Zea mays pullulanase1 (ZPU1), from residue 80, GAL4 fusion (maize (Zea mays L.)) (UniProt O81638).

Consider “maize isoamylase1 (ISA1), mature protein from residue 50, GAL4 fusion (from UniProt O22637 50-789) (enzyme)”, for which the Red Pullulan hydrolysis (ZPU1 activity) in total soluble extracts of yeast strain 830 (ISA1 and ZPU1) compared with strain 808 (ZPU1 alone) is 1.7 fold.
